According to US7977317B2, “Compositions and methods for modulating blood-brain barrier transport” (Raptor Pharmaceutical Inc., priority 2001, dated 2011):

Legend:
[1] = test system: BBCEC monolayers; experiment: Transcytosis across BBCEC monolayers (in vitro BBB model); type: cell-based, bovine; details: 200-fold molar excess of competitor, [125I]-p97 25 nM (FIG. 15a, 15b)
Excerpt: FIG. 10 assesses the ability of several agents to interfere with p97 transyctosis. FIG. 10a, transcytosis of I125-P97 was compared in the presence of cold p97 (5 micromolar), Lf (5 micromolar), and Tf (5 micromolar). […] FIG. 10c, RAP, a known poly-peptide inhibitor of the LDL-Receptor family was applied to the cells (25 micrograms/ml).
FIG. 11 examines the accumulation and transcytosis of p97. FIG. 11a, of [^125I]-p97, [^125I]-BSA and [^125I]-holo-transferrin one hour after i.v. injection. The radioactivity in brain was compared between the three compounds. (n=3); FIG. 11b, Accumulation of p97 and transferrin into the mouse brain parenchyma. In situ brain perfusion was performed with human [^125I]-p97 or [^125I]-holo-transferrin at a final concentration of 10 nM via a catheter inserted in the right common carotid artery. The volume of distribution (VD) of [^125I]-proteins were obtained in the whole brain homogenate (white bars), in brain capillaries (solid bars) and in brain parenchyma (hatched bars) after isolation of the right hemisphere and capillary depletion. Results were obtained for p97 (n=10) and for holo-transferrin (n=6); FIG. 11c, Transcytosis of p97 across BBCEC monolayers. Transcytosis experiments were performed 37° C. (open circles) and 4° C. (closed circles) with BBCEC monolayers. [^125I]-p97 (1 mg/ml) was added to the upper side of the cell-covered filter. One representative experiment is shown (n=4); FIG. 11d, Preferential transport of p97 across the BBCEC monolayers. Apical-to-basal and basal-to-apical transport of [^125I]-p97 (25 nM) was measured for 2 hrs at 37° C. At the end of the experiment, [^125I]-p97 was assessed in the lower or upper chambers of each well by TCA precipitation (n=4).
(§1) FIG. 13 illustrates the transcytosis and accumulation of p97 and transferrin in BBCEC monolayers. FIG. 13a, Transcytosis experiments were performed at 37° C. (solid bars) or 4° C. (white bars). [^125I]-p97 or bovine [^125I]-holo-transferrin (1 mg/ml) was added to the upper side of the cell-covered filter. At the end of the experiment, radiolabelled proteins were measured in the lower chamber of each well by TCA precipitation (n=4). Controls were also performed at 37° C. with denatured [^125I]-p97 or bovine [^125I]-holo-transferrin boiled for 30 min (grey bars) (n=2); FIG. 13b, Biospecific interaction analysis was performed with native or boiled p97 for the indicated times. MAb L235 (5 μg) was immobilized on a sensor chip (SM5) using standard procedures incorporating NHS, EDC and ethanolamine. Native and boiled p97 (5 to 30 min) diluted at 1 mg/ml in Ringer/Hepes was cooled and injected into the BIAcore. The surface plasmon resonance response obtained for native p97 and boiled p97 was plotted (in relative units (RU)) as a function of time; FIG. 13c, The accumulation of both proteins into BBEC cells were also measured. Briefly, after incubation at 37° C. (solid bars) or 4° C. (white bars) with either [^125I]-protein, cells were washed four times with cold PBS. Accumulation of both denatured proteins (grey bars) was also measured at 37° C. Filters were then removed, and the radioactivity associated with the cells was quantified (n=3).
FIG. 14 illustrates the stability of p97 and integrity of the BBCEC monolayers following p97 transcytosis. FIG. 14a, Transcytosis experiments were performed at 37° C. and 4° C. by adding p97 (1 mg/ml) to the upper compartment. At the end of the experiment, 50 μl from each lower chamber was used for SDS-polyacrylamide gel electrophoresis. After electrophoresis, the gels were stained with Coomassie Blue. A standard curve was also made with known amounts of recombinant p97 (0-2 μg); FIG. 14b. The gels were dried and scanned to quantify the amount of intact p97 that crossed the BBCEC monolayers at 37° C. and 4° C. (n=3); FIG. 14c, Effect of p97 on sucrose permeability of BBCE cell monolayers co-cultured with astrocytes. […]

[2] = test system: BBCEC monolayers; experiment: Accumulation of ligands in BBCEC monolayers; type: cell-based, bovine; details: native proteins (FIG. 13c)
Procedure: FIG. 7 illustrates the results of experiments where the ligands p97, Lf and Tf were heated or not heated prior to the binding study. In all cases, binding experiments were conducted in the transwell apparatus as described previously, with the exception that binding was conducted at either 4° C. or at 37° C. For the 37° C. trial, a separate experiment was conducted where the ligand was boiled for 30 mins then rapidly cooled prior to administration on the transwell plates.
as §1
In all cases, binding experiments were conducted in the transwell apparatus as described previously, with the exception that binding was conducted at either 4° C. or at 37° C. For the 37° C. trial, a separate experiment was conducted where the ligand was boiled for 30 mins then rapidly cooled prior to administration on the transwell plates.

B1: bovine holo-transferrin: bovine holo-transferrin (protein, UniProt Q29443 20-704, looked up)
Serotransferrin: DPERTVRWCTISTHEANKCASFRENVLRILESGPFVSCVKKTSHMDCIKAISNNEADAVTLDGGLVYEAGLKPNNLKPVVAEFHGTKDNPQTHYYAVAVVKKDTDFKLNELRGKKSCHTGLGRSAGWNIPMAKLYKELPDPQESIQRAAANFFSASCVPCADQSSFPKLCQLCAGKGTDKCACSNHEPYFGYSGAFKCLMEGAGDVAFVKHSTVFDNLPNPEDRKNYELLCGDNTRKSVDDYQECYLAMVPSHAVVARTVGGKEDVIWELLNHAQEHFGKDKPDNFQLFQSPHGKDLLFKDSADGFLKIPSKMDFELYLGYEYVTALQNLRESKPPDSSKDECMVKWCAIGHQERTKCDRWSGFSGGAIECETAENTEECIAKIMKGEADAMSLDGGYLYIAGKCGLVPVLAENYKTEGESCKNTPEKGYLAVAVVKTSDANINWNNLKDKKSCHTAVDRTAGWNIPMGLLYSKINNCKFDEFFSAGCAPGSPRNSSLCALCIGSEKGTGKECVPNSNERYYGYTGAFRCLVEKGDVAFVKDQTVIQNTDGNNNEAWAKNLKKENFEVLCKDGTRKPVTDAENCHLARGPNHAVVSRKDKATCVEKILNKQQDDFGKSVTDCTSNFCLFQSNSKDLLFRDDTKCLASIAKKTYDSYLGDDYVRAMTNLRQCSTSKLLEACTFHKP
modifications: iron-loaded (holo)
Question: Which results are given for B1?
Answer: Reduction of apical-to-basal transport of [125I]-p97 [1]: had no impact; Accumulation in BBCE cells [2]: no significant accumulation
